Blank lines part the entries; values can stand above or below the molecule they belong to.
Legend:
[1] = target: SecA_(795Fl), SecA_(A795C) labelled with 5-iodoacetamidofluorescein (E. coli) (UniProt P10408); experiment: other fluorescence titration
[2] = target: SecA (wild type) (E. coli) (UniProt P10408)
[3] = target: SecA-SecYEG complex with SecYE_(L106C)G uncross-linked (106) in proteoliposomes (E. coli) (UniProt P10408)
[4] = target: SecA-SecYEG complex with SecYE_(L106C)G cross-linked (106X, back-to-back dimer) in proteoliposomes (E. coli) (UniProt P10408)
[5] = target: the molecule itself; experiment: cross-linking
[6] = target: T1, SecY subunit (within wild-type SecYEG) (E. coli, UniProt P0AGA2 1-443); experiment: cross-linking
T1 sequence: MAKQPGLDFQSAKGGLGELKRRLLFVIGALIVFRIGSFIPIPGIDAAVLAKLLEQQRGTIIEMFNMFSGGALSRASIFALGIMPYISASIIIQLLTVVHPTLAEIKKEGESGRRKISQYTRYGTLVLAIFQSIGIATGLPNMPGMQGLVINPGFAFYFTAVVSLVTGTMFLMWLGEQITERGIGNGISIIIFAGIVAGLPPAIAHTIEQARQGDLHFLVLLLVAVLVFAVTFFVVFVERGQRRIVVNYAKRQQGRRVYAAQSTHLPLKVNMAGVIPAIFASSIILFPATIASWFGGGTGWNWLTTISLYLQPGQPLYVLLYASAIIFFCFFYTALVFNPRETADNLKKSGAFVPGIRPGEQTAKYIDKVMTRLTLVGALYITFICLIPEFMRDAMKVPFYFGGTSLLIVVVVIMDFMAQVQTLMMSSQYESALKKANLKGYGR

[7] = target: SecA-SecYEG complex (wild-type SecYEG in proteoliposomes with SecA) (E. coli, UniProt P10408;P0AGA2;P0AG96;P0AG99)

Kd [1]: < 1 nM
Kd [2]: 78 nM
Molecule: SecYE_(L106C)G cross-linked (106X), back-to-back dimer (from UniProt P0AGA2;P0AG96;P0AG99) (complex)

binding result [6]: binds
B1: SecE subunit (within wild-type SecYEG) (natural protein)
chain: MSANTEAQGSGRGLEAMKWVVVVALLLVAIVGNYLYRDIMLPLRALAVVILIAAAGGVALLTTKGKATVAFAREARTEVRKVIWPTRQETLHTTLIVAAVTAVMSLILWGLDGILVRLVSFITGLRF
binding result [5]: binds

The next lines start with the molecule.

Molecule: proOmpA (full-length, wild type) (from UniProt P0A910 1-346) (natural protein)
Kd [3]: 93 nM
Kd [4]: 92 nM

B2: proOmpA (full-length, wild type) (natural protein)
chain: MKKTAIAIAVALAGFATVAQAAPKDNTWYTGAKLGWSQYHDTGFINNNGPTHENQLGAGAFGGYQVNPYVGFEMGYDWLGRMPYKGSVENGAYKAQGVQLTAKLGYPITDDLDIYTRLGGMVWRADTKSNVYGKNHDTGVSPVFAGGVEYAITPEIATRLEYQWTNNIGDAHTIGTRPDNGMLSLGVSYRFGQGEAAPVVAPAPAPAPEVQTKHFTLKSDVLFNFNKATLKPEGQAALDQLYSQLSNLDPKDGSVVVLGYTDRIGSDAYNQGLSERRAQSVVDYLISKGIPADKISARGMGESNPVTGNTCDNVKQRAALIDCLAPDRRVEIEVKGIKDVVTQPQA
Kd [7]: 72 ± 41 nM

Source: article PMC3039378 (The Journal of Biological Chemistry, 2010)
